Experimental data taken from patent US20140024076A1 (AstraZeneca / MedImmune, published 2014).

Target: RSV-F protein, full-length, human RSV strain A2 (human respiratory syncytial virus, …, UniProt P03420 26-574)
Test: 25 nM Eu3+-labeled antibody on tetracycline-induced 293-derived cells, 44 h post induction; time-resolved fluorescence, R3-47 nonspecific binding subtracted

B1: motavizumab (antibody, V domains shown)
VH: QVTLRESGPALVKPTQTLTLTCTFSGFSLSTAGMSVGWIRQPPGKALEWLADIWWDDKKHYNPSLKDRLTISKDTSKNQVVLKVTNMDPADTATYYCARDMIFNFYFDVWGQGTTVTVSS
VL: DIQMTQSPSTLSASVGDRVTITCSASSRVGYMHWYQQKPGKAPKLLIYDTSKLASGVPSRFSGSGSGTEFTLTISSLQPDDFATYYCFQGSGYPFTFGGGTKVEIK
- fold amount of antibody bound, FGC-WPRE cell line compared to FGC cell line: 6.31 fold
